Laboratory results as given in paper PMC7335050 (2020).

T1: BAKΔTM (human, UniProt Q16611 1-186)
T1 chain: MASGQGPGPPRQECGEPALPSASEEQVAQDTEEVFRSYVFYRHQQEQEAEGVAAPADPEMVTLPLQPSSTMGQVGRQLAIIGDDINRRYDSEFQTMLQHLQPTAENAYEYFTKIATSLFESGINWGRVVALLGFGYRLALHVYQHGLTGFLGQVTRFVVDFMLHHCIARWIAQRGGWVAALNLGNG


Molecular target: T1, BAKΔTM
Assay: SPR

Row | Kd [µM] | Binder
1 | > 10 | NLWAAQRYGRELRRMSDEFVDSFKK [BAD BH3 peptide]
2 | > 10 | MEGSDALALRLACIGDEMDVSLRAPR [BIK BH3 peptide]
